# B1: RPT-6::VC155 [C. elegans] / ELT-2::VN173 [C. elegans] (parent complex)
# chain 1: MAPPASTASSADPSKPTAQKLTEESDEKTLRKYFSTKVDDAQQKVADKSQNVRRLQAQRNELNTKVRMLKEELQQLHEQGSYVGEVSKAMDKKKVLVKVHPEGKYVVDVDKSIDINSLNTGARVALRADSYALHKLLPNKVDPLVSLMMVEKVPDSTYEMVGGLDKQIKEIKEVIELPVKHPELFDALGIAQPKGVLLFGPPGTGKTLLARAVAHHTECTFIRVSGSELVQKFIGEGARMVRELFVMAREHAPSIIFMDEIDSIGSSRVEGSSGGDSEVQRTMLELLNQLDGFEATKNIKVIMATNRIDILDPALLRPGRIDRKIEFPAPDEKARADILKIHSRKMNLMRGINMAKIAEQIPGASGAEVKSVCTEAGMFALRERRIHVTQEDFEMAVGKVMQKDSEKNMSIKKLWK
# chain 2: MDNNYNDNVNGWAEMEPSQPMGGLRLPTQNMDPPEQNNESQLSELPRMKIDNDYASPIERQSVITSGTNNYEPKVETVTSFFHTGIDYSNFGMLDQTTMQPFYPLYSGIPVNTLGTFSGYTNSIYDKPSLYDPSIPTINIPSTYPTVAPTYECVKCSQSCGAGMKAVNGGMMCVNCSTPKTTYSPPVAYSTSLGQPPILEIPSEQPTAKIAKQSSKKSSSSNRGSNGSASRRQGLVCSNCNGTNTTLWRRNAEGDPVCNACGLYFKLHHIPRPTSMKKEGALQTRKRKSKSGDSSTPSTSRARERKFERASSSTEKAQRSSNRRAGSAKADRELSTAAVAAATATYVSHADLYPVSSAAVTLPDQTYSNYYQWNTAATAGLMMVPNDQNYVYAATNYQTGLRPADNIQVHVMPVQDDETKAAARDLEAVDGDS
# Variants of: B1
# Test: bimolecular fluorescence complementation (BiFC) in vivo, quantified with Copas Biosort; three independent experiments combined, minimum of 399 animals in each case; fluorescence observed twelve hours after heat shock; parent: 750; read off a plot
row,Variant,response
1,chain 1 K206R,~390 Fluorescence/TOF
